# Laboratory results from patent US20100216196A1 (AJINOMOTO, published 2010).
# T1: DsbA protein of Escherichia coli (protein encoded by the dsbA gene) (Escherichia coli, UniProt P0AEG4 20-208, free cysteine thiols labelled with AMS (4-acetamido-4'-maleimidyl-stilbene-2,2'-disulfonate) before electrophoresis)
# T1 construct: Endogenous periplasmic DsbA of E. coli BW25113, detected in cell lysates; also called disulfide oxidoreductase
# T1 sequence: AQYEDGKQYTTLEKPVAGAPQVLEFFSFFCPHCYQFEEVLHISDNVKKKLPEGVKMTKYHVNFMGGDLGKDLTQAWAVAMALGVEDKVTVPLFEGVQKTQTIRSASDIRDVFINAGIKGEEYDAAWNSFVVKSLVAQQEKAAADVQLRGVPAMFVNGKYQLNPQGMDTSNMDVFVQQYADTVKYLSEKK
# B1: DsbB (enzyme)
# chain: MLRFLNQCSQGRGAWLLMAFTALALELTALWFQHVMLLKPCVLCIYERCALFGVLGAALIGAIAPKTPLRYVAMVIWLYSAFRGVQLTYEHTMLQLYPSPFATCDFMVRFPEWLPLDKWVPQVFVASGDCAERQWDFLGLEMPQWLLGIFIAYLIVAVLVVISQPFKAKKRDLFGR
# notes: Endogenous protein in the wild-type strain, seen only as the DsbA-DsbB complex band on the anti-DsbA Western blot; also called intracellular membrane protein DsbB
# Target: T1, DsbA protein of Escherichia coli …
# Experiment: AMS modification, non-reducing SDS-PAGE and Western blot with anti-DsbA serum; wild-type E. coli BW25113 exposed to 5 mM cysteine
binder,measurement,value
B1,binding result,binds
